The values below come from US8673862 (dated 2014).

This assay deals with T1, angiotensin converting enzyme (ACE) (UniProt P12821).
T1 chain: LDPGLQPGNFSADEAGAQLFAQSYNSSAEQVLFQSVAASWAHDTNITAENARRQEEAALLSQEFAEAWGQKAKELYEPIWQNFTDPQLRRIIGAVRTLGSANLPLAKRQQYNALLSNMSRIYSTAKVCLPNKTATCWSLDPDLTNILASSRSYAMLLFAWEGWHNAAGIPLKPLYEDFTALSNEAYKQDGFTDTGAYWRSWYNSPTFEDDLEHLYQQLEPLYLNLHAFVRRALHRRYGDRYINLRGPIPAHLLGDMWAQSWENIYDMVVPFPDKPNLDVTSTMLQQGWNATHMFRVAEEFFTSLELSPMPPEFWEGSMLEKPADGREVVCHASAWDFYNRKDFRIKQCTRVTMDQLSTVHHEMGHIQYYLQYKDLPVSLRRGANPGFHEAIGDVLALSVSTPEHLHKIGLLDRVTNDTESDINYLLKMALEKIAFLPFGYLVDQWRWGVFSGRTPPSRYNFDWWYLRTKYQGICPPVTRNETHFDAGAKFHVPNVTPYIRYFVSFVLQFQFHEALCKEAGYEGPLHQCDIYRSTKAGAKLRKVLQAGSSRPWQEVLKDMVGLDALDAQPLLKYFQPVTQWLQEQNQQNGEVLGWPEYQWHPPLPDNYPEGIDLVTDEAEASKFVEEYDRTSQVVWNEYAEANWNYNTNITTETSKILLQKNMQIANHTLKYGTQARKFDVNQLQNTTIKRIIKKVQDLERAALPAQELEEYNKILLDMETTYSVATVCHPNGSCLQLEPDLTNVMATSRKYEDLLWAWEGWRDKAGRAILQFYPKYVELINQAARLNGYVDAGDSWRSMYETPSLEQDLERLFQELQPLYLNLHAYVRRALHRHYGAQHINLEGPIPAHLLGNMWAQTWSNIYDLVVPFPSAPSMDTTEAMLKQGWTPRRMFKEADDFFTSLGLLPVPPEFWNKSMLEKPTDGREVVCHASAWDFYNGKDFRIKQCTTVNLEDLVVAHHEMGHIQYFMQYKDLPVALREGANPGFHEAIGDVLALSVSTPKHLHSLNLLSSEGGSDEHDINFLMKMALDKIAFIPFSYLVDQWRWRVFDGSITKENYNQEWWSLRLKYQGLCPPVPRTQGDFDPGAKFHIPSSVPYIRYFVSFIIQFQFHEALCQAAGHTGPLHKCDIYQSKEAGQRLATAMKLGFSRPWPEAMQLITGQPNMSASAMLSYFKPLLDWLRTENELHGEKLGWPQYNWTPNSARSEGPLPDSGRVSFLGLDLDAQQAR
In words: other, ACE inhibition.

Take NDEG: half-maximal inhibition (IC50) was put at 768 µM. As for FV, the figure is 979 µM. As for KK, the figure is 921 µM; as for GNF, 26.9 µM; as for VVN, 77 µM. Under TYA stands 526 µM; under GLF, 83 µM. As for LF, half-maximal inhibition (IC50) was put at 83 µM. Under FVNHF stands 51.1 µM; under YY, 257 µM. Under TF stands 46.2 µM; under NSL, 64.9 µM; under VGGS, 35.5 µM.

For the molecule PDT, the midpoint of inhibition, the IC50, lay at 272 µM.

With LL, the IC50 came out at 345 µM. Under WN stands 368 µM; under TSF, 15.6 µM.
